# According to patent US20240262926A1 (published 2024):
# Substitutions are numbered along the chain they refer to.
# T1: recombinant monkey TfR (r monkey TfR: Sino Biological Inc.) (cynomolgus monkey (Macaca fascicularis), UniProt Q5RDH6 89-760 (Pongo abelii entry))
# T1 construct: Bought product; also called r monkey TfR-ECD (Histag); cynomolgus monkey TfR; not shown: histidine tag attached to the N-terminus
# T1 chain: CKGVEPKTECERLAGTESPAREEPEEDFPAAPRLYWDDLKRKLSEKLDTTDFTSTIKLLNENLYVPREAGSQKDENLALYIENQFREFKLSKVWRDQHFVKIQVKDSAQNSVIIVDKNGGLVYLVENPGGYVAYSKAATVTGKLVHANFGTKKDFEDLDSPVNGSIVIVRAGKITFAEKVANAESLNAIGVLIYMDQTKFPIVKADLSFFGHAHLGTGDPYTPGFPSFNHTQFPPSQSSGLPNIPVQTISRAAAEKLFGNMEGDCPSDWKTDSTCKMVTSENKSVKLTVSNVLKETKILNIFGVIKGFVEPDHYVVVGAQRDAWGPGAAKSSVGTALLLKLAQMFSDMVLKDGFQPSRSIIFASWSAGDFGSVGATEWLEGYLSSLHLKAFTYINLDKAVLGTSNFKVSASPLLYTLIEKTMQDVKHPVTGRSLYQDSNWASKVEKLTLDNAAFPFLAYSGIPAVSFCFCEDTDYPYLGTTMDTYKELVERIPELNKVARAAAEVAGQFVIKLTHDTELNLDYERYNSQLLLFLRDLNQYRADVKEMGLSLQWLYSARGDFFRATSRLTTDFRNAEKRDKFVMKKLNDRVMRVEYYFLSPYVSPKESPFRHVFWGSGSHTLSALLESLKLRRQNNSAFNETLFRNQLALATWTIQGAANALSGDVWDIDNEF
# B1: hBDNF-anti-hTfR antibody 5 (other)
# chain: HSDPARRGELSVCDSISEWVTAADKKTAVDMSGGTVTVLEKVPVSKGQLKQYFYETKCNPMGYTKEGCRGIDKRHWNSQCRTTQSYVRALTMDSKKRIGWRFIRIDTSCVCTLTIKRGRGSGGGGSGGGGSGGGGSGGGGSGGGGSEVQLVQSGAEVKKPGESLKISCKGSGYSFTNYWLGWVRQMPGKGLEWMGDIYPGGDYPTYSEKFKVQVTISADKSISTAYLQWSSLKASDTAMYYCARSGNYDEVAYWGQGTLVTVSSGGGGSGGGGSGGGGSDIVMTQTPLSLSVTPGQPASISCRSSQSLVHSNGNTYLHWYLQKPGQSPQLLIYKVSNRFSGVPDRFSGSGSGTDFTLKISRVEAEDVGVYYCSQSTHVPWTFGQGTKVEIK
# B2: hBDNF-anti-hTfR antibody 7 (other)
# heavy: HSDPARRGELSVCDSISEWVTAADKKTAVDMSGGTVTVLEKVPVSKGQLKQYFYETKCNPMGYTKEGCRGIDKRHWNSQCRTTQSYVRALTMDSKKRIGWRFIRIDTSCVCTLTIKRGRGSGGGGSGGGGSGGGGSGGGGSGGGGSEVQLVQSGAEVKKPGESLKISCKGSGYSFTNYWLGWVRQMPGKGLEWMGDIYPGGDYPTYSEKFKVQVTISADKSISTAYLQWSSLKASDTAMYYCARSGNYDEVAYWGQGTLVTVSSASTKGPSVFPLAPSSKSTSGGTAALGCLVKDYFPEPVTVSWNSGALTSGVHTFPAVLQSSGLYSLSSVVTVPSSSLGTQTYICNVNHKPSNTKVDKKVEPKSCDKTHT
# light: DIVMTQTPLSLSVTPGQPASISCRSSQSLVHSNGNTYLHWYLQKPGQSPQLLIYKVSNRFSGVPDRFSGSGSGTDFTLKISRVEAEDVGVYYCSQSTHVPWTFGQGTKVEIKRTVAAPSVFIFPPSDEQLKSGTASVVCLLNNFYPREAKVQWKVDNALQSGNSQESVTEQDSKDSTYSLSSTLTLSKADYEKHKVYACEVTHQGLSSPVTKSFNRGEC
# B3: humanized anti-hTfR antibody No. 2 (antibody, human IgG1, kappa, V domains shown)
# VH: QVQLVQSGAEVKKPGASVKVSCKASGYTFTDYVMHWVRQAPGQGLEWIGVISTYYGHGSYNQRFKGRATMTVDKSISTAYMELVRLRSDDTAVYYCVRGGYGSSSLAGNFDVWGQGTTVTVSS
# VL: EIVLTQSPDFQSVTPKEKVTITCRASQSISNNLQWYQQKPDQSPKLLIKYASQSISGIPSRFSGSGSGTDFTLTINSLEAEDAATYLCQQSNSWPRTFGQGTKVEIKR
# notes: IgG1; expressed in CHO-K1, purified on Protein A
# B4: humanized anti-hTfR antibody No. 3-3 (antibody, human IgG1, kappa)
# heavy: not shown
# light: B2 light with S12P, Q17E, K108R, V109L
# notes: IgG1
# B5: humanized anti-hTfR antibody No. 3-4 (antibody, human IgG1, kappa, V domains shown)
# VH: EVQLVQSGAEVKKPGESLKISCKGSGYSFTNYWLGWVRQMPGKGLEWMGDIYPGGDYPTYSEKFKVQVTISADKSISTAYLQWSSLKASDTAMYYCARSGNYDEVAYWGQGTLVTVSS
# VL: DIVMTQTPLSLSVTPGQPASISCRSSQSLVHSNGNTYLHWYLQKPGQSPQLLIYKVSNRFSGVPDRFSGSGSGTDFTLKISRVEAEDVGVFFCSQSTHVPWTFGQGTKVEIKR
# notes: IgG1
# B6: humanized anti-hTfR antibody No. 3-2 (antibody, human IgG1, kappa)
# heavy: not shown
# light: B2 light with T7S, S12P, Q17E
# notes: IgG1
# B7: humanized anti-hTfR antibody No. 1 (antibody, human IgG1, kappa, V domains shown)
# VH: EVQLVESGGGLVQPGGSLRLSCAASGLTFSNYGMSWVRQAPGKGLELVANINTNGGSTYYPDSVKGRFTISRDNAKNSLYLQMNSLRAEDTAVYYCTNNRYDEDYWGQGTLVTVSS
# VL: DIQVTQSPSFLSASVGDRVTITCKASQDVNSAVAWFQQKPGKAPKLLIYWTSTRHTGVPDRFSGSGSGTVYTLTISSLQPEDFATYYCQQHYSTPRTFGGGTKVEIKR
# notes: as for B3
# B8: anti-hTfR antibody No. 14 (antibody, V domains shown)
# VH: EVQLQESGPELLKPGASVKMSCKASGYAFTGYVIHWVKQKPGQGLEWIGFLNPHKDDSEYNEKFRGKATLTSDKSSSTAYMDLSSLTSEDSAVYYCARGYYYYSMDYWGQGTSVTVSS
# VL: DIVLTQTPVIMSAYPGEKVTLTCSASSNINSIHWYQQKPGTSPKRWIYDTSNLASGVPARFSGSGSGTSYSLTISSMEAEDAASYYCHQRSGYPFTFGSGTKLEIK
# notes: Mouse hybridoma antibody purified on Protein G; also called mouse anti-hTfR antibody No. 14; product of Clone 14 line
# B9: anti-hTfR antibody No. 3 (antibody, V domains shown)
# VH: EVQLQESGAELVRPGTSVKISCKASGYTFMNYWLGWVKQRPGHGLEWIGDIYPGGDYPTYSEKFKVKAILTADTSSSSVYLHLSSLTSEDSAVYFCARSGNYDEVAYWGQGTLVTVST
# VL: B5 VL with P8T, S12P, T14S, P15L, Q17D, P18Q, Q50K, V88L, Q105G, V109L
# notes: Mouse hybridoma antibody purified on Protein G; also called mouse anti-hTfR antibody No. 3; product of Clone 3 line
# Molecular target: human TrkB (GenBank Acc. No. NP_001018074.1) expressed in CHO cells (human, UniProt Q16620 32-822)
# Test: cell-based or functional assay
# Chain of human TrkB (GenBank Acc. No. NP_001018074.1) expressed in CHO cells (Q16620 32-822): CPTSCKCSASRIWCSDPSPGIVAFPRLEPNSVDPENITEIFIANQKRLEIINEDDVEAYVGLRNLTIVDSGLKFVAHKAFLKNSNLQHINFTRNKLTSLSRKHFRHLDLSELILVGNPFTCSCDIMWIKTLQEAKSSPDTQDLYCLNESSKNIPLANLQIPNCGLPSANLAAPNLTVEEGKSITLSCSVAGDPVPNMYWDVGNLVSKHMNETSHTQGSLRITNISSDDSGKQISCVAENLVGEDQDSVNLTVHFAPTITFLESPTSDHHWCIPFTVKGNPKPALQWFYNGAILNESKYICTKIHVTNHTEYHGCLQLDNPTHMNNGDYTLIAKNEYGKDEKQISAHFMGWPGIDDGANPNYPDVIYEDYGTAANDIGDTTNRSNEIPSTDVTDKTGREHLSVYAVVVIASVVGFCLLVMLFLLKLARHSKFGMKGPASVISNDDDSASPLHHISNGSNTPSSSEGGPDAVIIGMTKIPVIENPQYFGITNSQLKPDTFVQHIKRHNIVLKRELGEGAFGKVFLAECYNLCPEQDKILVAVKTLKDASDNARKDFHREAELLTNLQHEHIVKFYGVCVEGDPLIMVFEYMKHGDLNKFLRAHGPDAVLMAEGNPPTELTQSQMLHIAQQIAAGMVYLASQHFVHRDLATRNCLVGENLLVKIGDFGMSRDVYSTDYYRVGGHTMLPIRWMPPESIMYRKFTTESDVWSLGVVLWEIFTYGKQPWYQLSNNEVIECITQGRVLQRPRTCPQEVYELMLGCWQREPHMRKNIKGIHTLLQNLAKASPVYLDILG
row,"BDNF activity (TrkB agonistic EC50, nmol/L)",Binder
1,0.092 nmol/L,B1
2,0.23 nmol/L,B2

# Molecular target: T2, recombinant human TfR (r human TfR: Sino Biological Inc.) (human, UniProt P02786 89-760)
# T2 construct: Bought product; also called r human TfR-ECD (Histag); hTfR; not shown: histidine tag attached to the N-terminus
# Test: BLI (Octet RED96), method of Example 7, His-tagged TfR ECD on Ni-NTA sensor
# Method: (§1) Each of the antibodies (anti-hTfR antibody Nos. 1 to 14) purified above was subjected to 2-fold dilution steps with HBS-P+(10 mM HEPES containing 150 mM NaCl, 50 μM EDTA and 0.05% Surfactant P20) to prepare antibody solutions of 7 different concentrations, 0.78125 to 50 nM (0.117 to 7.5 μg/mL). These antibody solutions were used as the sample solutions. The r human and r monkey TfRs were respectively diluted with HBS-P+ to prepare 25 μg/mL solutions, which were used as r human TfR-ECD (Histag) solution and r monkey TfR-ECD (Histag) solution, respectively.
# (§2) Each of the sample solutions prepared above by 2-fold dilution steps was added, 200 μL/well, to a 96-well plate, black (Greiner Bio-One Inc.). Each of the r human TfR-ECD (Histag) solution and the r monkey TfR-ECD (Histag) solutions prepared above was added, 200 μL/well, to predetermined wells. To respective wells for baseline, dissociation and washing were added HBS-P+, 200 μL/well. To wells for regeneration were added 10 mM Glycine-HCl, pH 1.7, 200 μL/well. To wells for activation was added 0.5 mM NiCl₂ solution, 200 μL/well. The plate and biosensor (Biosensor/Ni-NTA: ForteBio Inc., a division of Pall Corporation) were set in the prescribed positions of Octet RED96. […] The measurement was performed at 25 to 30° C.
# (§3) The affinity of the humanized anti-hTfR antibodies obtained in Example 13 to human and monkey TfRs was measured by the method described in Example 7.
Kd,koff,kon,Binder
< 0.001 nM,< 1e-07 s⁻¹,197000 M⁻¹ s⁻¹,B3
0.0209 nM,1.25e-05 s⁻¹,600000 M⁻¹ s⁻¹,B4
< 0.001 nM,< 1e-07 s⁻¹,1.01e+06 M⁻¹ s⁻¹,B5
0.0239 nM,1.45e-05 s⁻¹,606000 M⁻¹ s⁻¹,B6
< 0.001 nM,< 1e-07 s⁻¹,393000 M⁻¹ s⁻¹,B7

# Molecular target: T1, recombinant monkey TfR (r monkey TfR: …)
# Test: as above
# Method: as §1, §2, §3
Kd,koff,kon,Binder
0.0755 nM,3.67e-05 s⁻¹,487000 M⁻¹ s⁻¹,B3
1.91 nM,0.000932 s⁻¹,488000 M⁻¹ s⁻¹,B4
0.26 nM,0.000135 s⁻¹,519000 M⁻¹ s⁻¹,B5
1.77 nM,0.000876 s⁻¹,495000 M⁻¹ s⁻¹,B6
< 0.001 nM,< 1e-07 s⁻¹,253000 M⁻¹ s⁻¹,B7

# Molecular target: T2, recombinant human TfR (r human TfR: …)
# Test: BLI (Octet RED96), His-tagged TfR ECD loaded on Ni-NTA sensor, antibody as analyte
# Method: (§4) By measuring the variations of this shift between the interfering waves, determination of the number of the molecules bound to the layer of the biomolecules immobilized to the sensor tip surface and kinetic analysis of it can be performed in real time. The measurement was performed according generally to the operating manual attached to Octet RED96. As a human TfR, a recombinant human TfR (r human TfR: Sino Biological Inc.) was used, which had the amino acid sequence of the hTfR extracellular region, i.e., the cysteine residue at the position 89th from the N-terminal side to the phenylalanine at the C-terminus, of the amino acid sequence set forth as SEQ ID NO:1, with a histidine tag attached to the N-terminus. As a monkey TfR, a recombinant monkey TfR (r monkey TfR: Sino Biological Inc.) was used, which had the amino acid sequence of the cynomolgus monkey TfR extracellular region, i.e., the cysteine residue at the position 89th from the N-terminal side to the phenylalanine at the C-terminus, of the amino acid sequence set forth as SEQ ID NO:2, with a histidine tag attached to the N-terminus.
# as §1
# (§5) Each of the sample solutions prepared above by 2-fold dilution steps was added, 200 μL/well, to a 96-well plate, black (Greiner Bio-One Inc.). Each of the r human TfR-ECD (Histag) solution and the r monkey TfR-ECD (Histag) solutions prepared above was added, 200 μL/well, to predetermined wells. To respective wells for baseline, dissociation and washing were added HBS-P+, 200 μL/well. To wells for regeneration were added 10 mM Glycine-HCl, pH 1.7, 200 μL/well. To wells for activation was added 0.5 mM NiCl₂ solution, 200 μL/well. The plate and biosensor (Biosensor/Ni-NTA: ForteBio Inc., a division of Pall Corporation) were set in the prescribed positions of Octet RED96.
Kd,koff,kon,Binder
< 0.001 nM,< 1e-07 s⁻¹,961000 M⁻¹ s⁻¹,B8
< 0.001 nM,< 1e-07 s⁻¹,653000 M⁻¹ s⁻¹,B9

# Molecular target: T1, recombinant monkey TfR (r monkey TfR: …)
# Test: as above
# Method: as §4, §1, §5
Kd,koff,kon,Binder
0.0516 nM,3.61e-05 s⁻¹,700000 M⁻¹ s⁻¹,B8
< 0.001 nM,< 1e-07 s⁻¹,389000 M⁻¹ s⁻¹,B9
